In article PMC6351178:

Biological target: PitA (E. coli (endogenous in MG1655)) (UniProt P0AFJ7)
Assay: cross-linking

UniProt P0AFJ7, sequence (P0AFJ7 whole entry): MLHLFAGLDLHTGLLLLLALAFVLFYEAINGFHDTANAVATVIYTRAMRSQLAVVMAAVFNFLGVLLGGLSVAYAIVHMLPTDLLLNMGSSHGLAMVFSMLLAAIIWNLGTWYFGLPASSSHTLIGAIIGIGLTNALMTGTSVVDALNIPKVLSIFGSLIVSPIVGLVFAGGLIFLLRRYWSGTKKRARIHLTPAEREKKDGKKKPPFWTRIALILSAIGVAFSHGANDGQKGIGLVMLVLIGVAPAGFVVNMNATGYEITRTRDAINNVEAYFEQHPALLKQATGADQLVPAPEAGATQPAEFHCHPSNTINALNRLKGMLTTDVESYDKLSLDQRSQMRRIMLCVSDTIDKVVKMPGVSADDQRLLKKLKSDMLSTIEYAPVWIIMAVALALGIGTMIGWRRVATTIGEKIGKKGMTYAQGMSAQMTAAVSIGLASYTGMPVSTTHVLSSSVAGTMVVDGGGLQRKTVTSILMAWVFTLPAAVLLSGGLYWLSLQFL

MgtS-SPA (from UniProt A5A616 1-31) (natural protein)
stoichiometry N (MgtS-SPA per PitA): 1
